# Measurements from paper PMC11254524 (Cell Insight, 2024).
# B1: His-tagged SFN (natural protein, UniProt P31947 1-248, looked up)
# chain: MERASLIQKAKLAEQAERYEDMAAFMKGAVEKGEELSCEERNLLSVAYKNVVGGQRAAWRVLSSIEQKSNEEGSEEKGPEVREYREKVETELQGVCDTVLGLLDSHLIKEAGDAESRVFYLKMKGDYYRYLAEVATGDDKKRIIDSARSAYQEAMDISKKEMPPTNPIRLGLALNFSVFHYEIANSPEEAISLAKTTFDEAMADLHTLSEDSYKDSTLIMQLLRDNLTLWTADNAGEEGGEAPQEPQS
# Target: GST-tagged AKT1 (UniProt P31749 1-480)
# Assay: pull-down
# Chain of GST-tagged AKT1 (P31749 whole entry): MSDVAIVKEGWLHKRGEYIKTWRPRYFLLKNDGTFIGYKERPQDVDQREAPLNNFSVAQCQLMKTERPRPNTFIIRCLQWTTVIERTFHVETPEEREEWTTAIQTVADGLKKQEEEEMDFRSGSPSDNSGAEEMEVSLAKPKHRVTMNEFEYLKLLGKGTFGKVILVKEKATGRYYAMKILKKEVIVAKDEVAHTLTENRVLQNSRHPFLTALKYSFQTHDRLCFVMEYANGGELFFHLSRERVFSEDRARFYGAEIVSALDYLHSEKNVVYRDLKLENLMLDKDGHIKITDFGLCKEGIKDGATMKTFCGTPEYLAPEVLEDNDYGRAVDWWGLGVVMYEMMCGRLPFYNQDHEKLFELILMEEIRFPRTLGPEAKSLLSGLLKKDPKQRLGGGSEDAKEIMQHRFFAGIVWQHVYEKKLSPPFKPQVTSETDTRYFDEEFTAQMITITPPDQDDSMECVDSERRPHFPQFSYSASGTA
binder,measurement,value
B1,binding result,binds
